Laboratory results: publication PMC9352680, “A comprehensive thermodynamic model for RNA binding by the Saccharomyces cerevisiae Pumilio protein PUF4”
Where a chain is given by its changes, count along the chain named. In names and notes the source's numbering stands.

B1: Id_ii_S2_P5E.4_K5.3_C5.2_[C-2A]_H5.3_A5.1_F5.1_T5.2_[T11A]_[A12C] (ssRNA)
RNA: UUUGAUUAAUAUGAUAUCGUUCUUUCUAUACACUUAUUAACUUCUUUCUCGAUAUCAUAUUAAUCUUU
B2: Id_ii_S2_P5E.4_K5.3_C5.2_[C-2A]_[T-1C]_H5.3_A5.1_F5.1_T5.2_[T11G]_[A12C] (ssRNA)
RNA: B1 RNA with U29C, A40G
B3: Id_ii_S2_P5E.4_K5.3_C5.2_[C-2A]_[T-1C]_H5.3_A5.1_F5.1_T5.2_[A12T] (ssRNA)
RNA: B1 RNA with U29C, A40U, C41U
B4: Id_ii_S2_P5E.4_K5.3_C5.2_[T-1G]_H5.3_A5.1_F5.1_T5.2 (ssRNA)
RNA: B1 RNA with A28C, U29G, A40U, C41A
B5: Id_ii_S2_P5E.4_K5.3_C5.2_[T-1C]_H5.3_A5.1_F5.1_T5.2 (ssRNA)
RNA: B1 RNA with A28C, U29C, A40U, C41A
B6: Id_ii_S2_P5E.4_K5.3_C5.2_[T-1C]_H5.3_A5.1_F5.1_T5.2_[T11A] (ssRNA)
RNA: B1 RNA with A28C, U29C, C41A
B7: Id_ii_S2_P5E.4_K5.3_C5.2_[T-1G]_H5.3_A5.1_F5.1_T5.2_[T11C] (ssRNA)
RNA: B1 RNA with A28C, U29G, A40C, C41A
B8: Id_ii_S2_P5E.4_K5.3_C5.2_[C-2A]_[T-1A]_H5.3_A5.1_F5.1_T5.2_[A12T] (ssRNA)
RNA: B1 RNA with U29A, A40U, C41U
B9: Id_ii_S2_P5E.4_K5.3_C5.2_[C-2A]_H5.3_A5.1_F5.1_T5.2_[A12C] (ssRNA)
RNA: B1 RNA with A40U
B10: Id_ii_S2_P5E.4_K5.3_C5.2_[C-2A]_H5.3_A5.1_F5.1_T5.2_[T11C]_[A12C] (ssRNA)
RNA: B1 RNA with A40C
B11: Id_ii_S2_P5E.4_K5.3_C5.2_[C-2A]_H5.3_A5.1_F5.1_T5.2_[T11A]_[A12T] (ssRNA)
RNA: B1 RNA with C41U
B12: Id_ii_S2_P5E.4_K5.3_C5.2_[T-1A]_H5.3_A5.1_F5.1_T5.2_[T11C] (ssRNA)
RNA: B1 RNA with A28C, U29A, A40C, C41A
B13: Id_ii_S2_P5E.4_K5.3_C5.2_[T-1G]_H5.3_A5.1_F5.1_T5.2_[A12C] (ssRNA)
RNA: B1 RNA with A28C, U29G, A40U
B14: Id_ii_S2_P5E.4_K5.3_C5.2_[T-1A]_H5.3_A5.1_F5.1_T5.2_[T11C]_[A12T] (ssRNA)
RNA: B1 RNA with A28C, U29A, A40C, C41U
B15: Id_ii_S2_P5E.4_K5.3_C5.2_[T-1C]_H5.3_A5.1_F5.1_T5.2_[T11G]_[A12C] (ssRNA)
RNA: B1 RNA with A28C, U29C, A40G
B16: Id_ii_S2_P5E.4_K5.3_C5.2_[C-2A]_H5.3_A5.1_F5.1_T5.2_[T11C]_[A12G] (ssRNA)
RNA: B1 RNA with A40C, C41G
B17: Id_ii_S2_P5E.4_K5.3_C5.2_[C-2A]_[T-1C]_H5.3_A5.1_F5.1_T5.2_[T11A]_[A12C] (ssRNA)
RNA: B1 RNA with U29C
B18: Id_ii_S2_P5E.4_K5.3_C5.2_[T-1G]_H5.3_A5.1_F5.1_T5.2_[A12T] (ssRNA)
RNA: B1 RNA with A28C, U29G, A40U, C41U
B19: Id_ii_S2_P5E.4_K5.3_C5.2_[C-2A]_[T-1C]_H5.3_A5.1_F5.1_T5.2_[T11C]_[A12G] (ssRNA)
RNA: B1 RNA with U29C, A40C, C41G
B20: Id_ii_S2_P5E.4_K5.3_C5.2_[C-2A]_H5.3_A5.1_F5.1_T5.2_[A12T] (ssRNA)
RNA: B1 RNA with A40U, C41U
B21: Id_ii_S2_P5E.4_K5.3_C5.2_[C-2A]_H5.3_A5.1_F5.1_T5.2_[T11C] (ssRNA)
RNA: B1 RNA with A40C, C41A
B22: Id_ii_S2_P5E.4_K5.3_C5.2_[T-1C]_H5.3_A5.1_F5.1_T5.2_[A12C] (ssRNA)
RNA: B1 RNA with A28C, U29C, A40U
B23: Id_ii_S2_P5E.4_K5.3_C5.2_[C-2A]_[T-1A]_H5.3_A5.1_F5.1_T5.2_[A12C] (ssRNA)
RNA: B1 RNA with U29A, A40U
B24: Id_ii_S2_P5E.4_K5.3_C5.2_[C-2T]_H5.3_A5.1_F5.1_T5.2 (ssRNA)
RNA: B1 RNA with A28U, A40U, C41A
B25: Id_ii_S2_P5E.4_K5.3_C5.2_[T-1C]_H5.3_A5.1_F5.1_T5.2_[T11C] (ssRNA)
RNA: B1 RNA with A28C, U29C, A40C, C41A
B26: Id_ii_S2_P5E.4_K5.3_C5.2_[C-2A]_[T-1C]_H5.3_A5.1_F5.1_T5.2_[T11C]_[A12C] (ssRNA)
RNA: B1 RNA with U29C, A40C
B27: Id_ii_S2_P5E.4_K5.3_C5.2_[C-2A]_H5.3_A5.1_F5.1_T5.2_[T11G]_[A12C] (ssRNA)
RNA: B1 RNA with A40G
B28: Id_ii_S2_P5E.4_K5.3_C5.2_[T-1A]_H5.3_A5.1_F5.1_T5.2_[T11A]_[A12T] (ssRNA)
RNA: B1 RNA with A28C, U29A, C41U
B29: Id_ii_S2_P5E.4_K5.3_C5.2_[T-1C]_H5.3_A5.1_F5.1_T5.2_[T11C]_[A12C] (ssRNA)
RNA: B1 RNA with A28C, U29C, A40C

Target: T1, PUF4 RNA-binding domain (Saccharomyces cerevisiae, UniProt P25339 537-888)
T1 sequence: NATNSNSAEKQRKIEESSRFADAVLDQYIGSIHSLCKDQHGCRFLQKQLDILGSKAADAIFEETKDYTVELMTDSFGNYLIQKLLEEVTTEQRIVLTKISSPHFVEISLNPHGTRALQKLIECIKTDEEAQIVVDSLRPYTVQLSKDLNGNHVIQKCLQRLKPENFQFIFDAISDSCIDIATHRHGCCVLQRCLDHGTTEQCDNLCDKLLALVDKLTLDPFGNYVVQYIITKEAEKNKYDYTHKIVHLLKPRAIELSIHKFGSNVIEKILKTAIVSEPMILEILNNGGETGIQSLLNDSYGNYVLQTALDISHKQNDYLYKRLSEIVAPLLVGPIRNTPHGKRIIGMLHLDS
Assay: Mg; RNA-MaP; 20 mM Na-HEPES pH 7.4, 30 mM KOAc, 0.75 mM MgCl2, 0.1% Tween-20, 5% glycerol, 0.1 mg/mL BSA, 2 mM DTT; 25 C; 0.0125-409.6 nM protein
Details: tags: N-His6-TEV cleaved; C-SNAP kept, Cy3B-labelled; label: tethered on chip by stalled RNA polymerase

Binder | Kd
B1 | 161 nM
B2 | > 2300 nM
B3 | > 2300 nM
B4 | 831 nM
B5 | 651 nM
B6 | > 2300 nM
B7 | > 2300 nM
B8 | > 2300 nM
B9 | 131 nM
B10 | 110 nM
B11 | 129 nM
B12 | > 2300 nM
B13 | > 2300 nM
B14 | > 2300 nM
B15 | > 2300 nM
B16 | 674 nM
B17 | > 2300 nM
B18 | > 2300 nM
B19 | > 2300 nM
B20 | 97.8 nM
B21 | 136 nM
B22 | > 2300 nM
B23 | > 2300 nM
B24 | 722 nM
B25 | > 2300 nM
B26 | > 2300 nM
B27 | 902 nM
B28 | > 2300 nM
B29 | > 2300 nM
